Measurements: patent US20230009582A1 (MEMO THERAPEUTICS, published 2023)

T1: Siglec-5-Fc (R&D systems) (UniProt O15389 17-434, limits assumed)
T1 construct: Bought reagent; not shown: Fc part of the bought fusion; not described
T1 sequence (looked up): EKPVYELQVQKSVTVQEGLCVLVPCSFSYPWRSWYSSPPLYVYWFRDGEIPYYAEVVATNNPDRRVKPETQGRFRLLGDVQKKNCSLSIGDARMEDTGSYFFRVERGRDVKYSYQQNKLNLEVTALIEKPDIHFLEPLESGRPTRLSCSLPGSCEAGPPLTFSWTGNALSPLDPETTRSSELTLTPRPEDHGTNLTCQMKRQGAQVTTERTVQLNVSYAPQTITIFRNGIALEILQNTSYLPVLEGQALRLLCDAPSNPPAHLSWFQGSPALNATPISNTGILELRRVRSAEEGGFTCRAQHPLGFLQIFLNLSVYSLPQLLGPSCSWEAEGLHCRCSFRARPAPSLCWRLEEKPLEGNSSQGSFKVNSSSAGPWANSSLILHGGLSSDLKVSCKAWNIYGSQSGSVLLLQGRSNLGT

B1: comparative monoclonal antibody mAbA (WO 2017/153433), mouse-human chimera (antibody, human IgG1, kappa, V domains shown)
VH: QVQLQQPGAELVKPGSPVKLSCKASYFTFTSYWMHWVRQRPGQGLEWIGEINPSNGHTNYNEKFESKATLTVDRSSSTAYMQLSSLTSEDSAVFYCANGVESYDFDDALDYWGQGTSVTVSS
VL: DIQMTQTTSSLSASLGDRVTISCRASQDINNYLNWYQQKPDGTIKLLIYYTSRLHSGVPSRFSGSGSGTDYSLTINNLEQEDIATYFCQQGNTLPFTFGGGTKLEIKR
B2: monoclonal antibody 224B1 (rabbit) (antibody, V domains shown)
VH: QSVEESGGRLVTPETPLTLTCTASGFSLSSYYMSWVRQAPGKGLEWIGYIWTDGSAHYATWTKGRFTISKTSSTTVDLKITSPTTEDTATYFCVRANSGSHTYIEKFNLWGPGTLVTVSS
VL: DVVMTQTPASVEATVGGSVTIKCQASPSINDELSWYQQKPGQRPTLLIYEASALESGVPSRFKGSGSGTEFTLTIGDLECADAATYYCQCTYGSRSDISYGNTFGGGTEVVVKG

Tests used:
[1] = biological target: T2, Siglec-9 protein (construct not stated; antigen of Examples 3 and 4) (human, UniProt Q9Y336 18-348, limits assumed); test: SPR (Carterra LSA), antibody coupled to HC2000M chip, antigen at 20, 100 and 500 nM
Description: KD determination was performed by SPR by individually coating the antibodies to HC2000M chips via sulpho-NHS/EDC coupling chemistry. Chips were afterwards blocked with ethanolamine. Antigen was applied in one of the three different concentrations (20 nM, 100 nM and 500 nM) with a contact time of 240 s, followed by a dissociation phase of 120 s. After each antigen incubation, the bound antigen was removed from the antibodies with 10 mM glycine at pH 2.0. All kinetic parameters (kₒₙ, koff and KD) were determined using a kinetic fitting program (LSA Kinetics, Carterra).

[2] = biological target: T3, Siglec-9-Fc (in-house production); test: blocking assay: Calcein-AM labelled sialic acid-displaying A549 tumour cells binding to plate-captured Siglec-9-Fc, antibody titrated, n=3
T3 construct: The entry holds the Siglec-9 part and the Fc together; also called Siglec-9-Fc protein
Description: FIG. 4: Titration of monoclonal antibodies (68D4 and 224B1; comparative monoclonal antibodies mAbA and 5C6 & negative control 53C3) to determine blocking the binding of sialic acid-displaying A549 tumour cells to Siglec-9. Tumour cells were fluorescently-loaded with Calcein-AM in advance to the binding experiment and binding was determined by the released fluorescence upon cell lysis. Fluorescence released in the absence of antibody was set to 100% binding. Data was fitted by three-parameter analysis in GraphPad Prism (GraphPad Software); n=3.
To analyse if anti-Siglec-9 antibodies recognize the ligand-binding domain and block the binding of Siglec-9 to its ligands, sialic acids, we performed a cell-based assay where the binding of sialic-acid expressing A549 tumour cells to Siglec-9-Fc is evaluated in ELISA. ELISA-plates were coated with 3 μg/ml Protein-A (Thermo Fisher Scientific) overnight at 4° C. Plates were blocked with PBS, 1% BSA for 1 h, and incubated with 5 μg/ml Siglec-9-Fc for 1 h at RT. Anti-Siglec-9 antibodies at different concentrations (starting at 8 μg/ml or 53 nM); were mixed 1:1 with Calcein-AM (Thermo Fisher Scientific) labeled A549 tumour cells. The mixture was added to the ELISA plate and incubated for 1 h at 4° C. After washing of the plate, cells that were bound to the plate were lysed with PBS, 1% Triton-X 100 and released fluorescence was measured at an excitation of 485 nm and emission of 535 nm with a Synergy H1 (BioTek). Data were fitted by three-parameter analysis in GraphPad Prism (GraphPad Software).

[3] = biological target: T1, Siglec-5-Fc (R&D systems); test: ELISA, coated Siglec-5-Fc 1 µg/ml, single antibody concentration, Abs 450 nm, n=3
Description: Specificity towards Siglec-5, Siglec-7, Siglec-8, Siglec-15 and Siglec-9 was assayed in enzyme-linked immunosorbent assay (ELISA) using 96 well half-area ELISA plates (Corning). Siglec-5-Fc (R&D systems), Siglec-7-Fc (in-house production, Siglec-7-Fc protein used had the following amino acid sequence:
(SEQ ID NO: 59)) […] […] […] […] […] […] […] […] […] […] […] […], Siglec-8-Fc (R&D systems), Siglec-15- Fc (R&D systems) and Siglec-9-Fc (in-house production, SEQ ID NO: 11) were coated at 1 μg/ml in 50 mM carbonate-bicarbonate buffer pH 9.6 for 15-20 hours at 4° C.
Antigens were washed away (Tecan Hydrospeed) and plates were blocked with 5% skimmed milk in phosphate-buffered saline (PBS). After washing the plates, antibodies were added at 5 μg/ml (33 nM) in 0.5% milk PBS in triplicates. Plates with antibodies were incubated for 1 hour at room temperature. Plates were washed and bound antibodies were detected by horseradish peroxidase (HRP)-labeled polyclonal anti-rabbit IgG antibody (Biolegend) or anti-human Fab fragment for mAbA (Sigma Aldrich). 3,3′,5,5′-Tetramethylbenzidine (TMB; Sigma Aldrich) development was stopped by addition of sulfuric acid and absorbance was detected at 450 nm (Tecan, CM […] MONO 200).

[4] = biological target: T2, Siglec-9 protein (construct not stated; …); test: ELISA, coated Siglec-9 1 µg/ml, antibody titrated, Abs 450 nm, three-parameter fit, n=3
Description: FIG. 2: Binding curves of monoclonal antibodies (68D4 and 224B1; comparative monoclonal antibodies mAbA and 5C6 & negative control 53C3) towards Siglec-9 as analysed by ELISA. Binding of the monoclonal antibody to Siglec-9, as determined by measurement of the accumulated coloured product at 450 nm after stopping the reaction, is plotted against the concentration of the monoclonal antibody under evaluation.
Antibody binding affinity towards Siglec-9 was measured by a dilution series of the analysed antibodies on a fixed concentration of Siglec-9 protein in ELISA. To this end, Siglec-9 was coated at 1 μg/ml in 50 mM carbonate-bicarbonate buffer pH 9.6 for 15-20 hours at 4° C. Antigen solution was washed away (Tecan Hydrospeed) and plates were blocked with 5% skimmed milk in phosphate-buffered saline (PBS) for 1 hour at room temperature. Plates were washed and antibodies were added at concentrations of 0-420 nM. After incubation at room temperature for 1 hour plates were washed once more. Bound antibodies were detected by addition of horseradish peroxidase (HRP)-coupled secondary antibodies. Rabbit antibodies were detected by polyclonal anti-rabbit IgG antibody (Biolegend), mAbA by anti-human Fab fragment (Sigma Aldrich). After a last washing step, plates were developed by the addition of 3,3′,5,5′-Tetramethylbenzidine (TMB; Sigma Aldrich). Reaction was stopped by addition of sulfuric acid. Absorbance was detected at 450 nm (Tecan, CM […] MONO 200). Data were fitted and EC50 values were determined by three-parameter analysis in GraphPad Prism (GraphPad Software)

T2 sequence (Q9Y336 18-348 limits assumed): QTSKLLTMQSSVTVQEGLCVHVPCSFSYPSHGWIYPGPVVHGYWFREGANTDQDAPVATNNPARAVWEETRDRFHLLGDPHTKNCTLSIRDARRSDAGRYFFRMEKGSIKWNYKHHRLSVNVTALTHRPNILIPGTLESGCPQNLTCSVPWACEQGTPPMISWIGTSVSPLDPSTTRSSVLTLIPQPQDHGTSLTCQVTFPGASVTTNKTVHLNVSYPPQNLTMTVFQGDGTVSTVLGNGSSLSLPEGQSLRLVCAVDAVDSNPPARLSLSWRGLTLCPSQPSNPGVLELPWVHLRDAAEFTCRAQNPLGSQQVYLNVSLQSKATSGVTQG
T3 sequence (chain, as listed by the source limits assumed): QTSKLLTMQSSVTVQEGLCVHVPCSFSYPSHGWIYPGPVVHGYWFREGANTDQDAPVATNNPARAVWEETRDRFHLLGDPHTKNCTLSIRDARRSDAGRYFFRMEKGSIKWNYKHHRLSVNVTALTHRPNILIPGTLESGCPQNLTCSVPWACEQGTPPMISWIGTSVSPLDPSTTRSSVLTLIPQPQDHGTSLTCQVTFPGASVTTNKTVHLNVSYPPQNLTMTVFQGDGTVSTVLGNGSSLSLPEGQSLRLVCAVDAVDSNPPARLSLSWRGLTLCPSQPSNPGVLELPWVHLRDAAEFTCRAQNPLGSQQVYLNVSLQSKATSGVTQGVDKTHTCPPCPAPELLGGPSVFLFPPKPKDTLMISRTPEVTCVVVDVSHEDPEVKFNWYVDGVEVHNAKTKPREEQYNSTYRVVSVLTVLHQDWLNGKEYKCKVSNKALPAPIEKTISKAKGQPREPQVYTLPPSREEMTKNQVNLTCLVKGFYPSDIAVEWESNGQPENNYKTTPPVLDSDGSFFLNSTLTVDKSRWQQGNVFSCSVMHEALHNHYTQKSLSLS

Row | Binder | Kd [1] | koff [1] | kon [1] | binding result [2] | binding result [3] | EC50 [4]
1 | B1 | 2.5 nM | 0.00053 s⁻¹ | 210000 M⁻¹ s⁻¹ | binds |  | 
2 | B2 | 5.1 nM | 0.0012 s⁻¹ | 230000 M⁻¹ s⁻¹ | binds | no binding (tested: 5 µg/ml) | 0.1 nM
